± gives the uncertainty stated by the source.
B1: Tumor protein p73, residues 487 to 549; numbered along this chain, O15350 (parent)
chain: YHADPSLVSFLTGLGCPNCIEYFTSQGLQSIYHLQNLTIEDLGALKIPEQYRMTIWRGLQDLK

Variants of: B1
Experiment: abundance fitness (aPCA) (normalised: wild type 0, dead -1); higher = more abundant; growth selection in yeast, the domain comes from the species named
Details: Homo sapiens

Abundance fitness of substitutions, site by site:
I47: S -0.95 ± 0.083; R -0.962 ± 0.063; V 0.071 ± 0.026; A -0.768 ± 0.075; E -1.06 ± 0.11; C -0.171 ± 0.034; G -0.913 ± 0.053
L62: C -0.117 ± 0.095; A -0.104 ± 0.045; E -0.007 ± 0.038
G58: S -0.104 ± 0.047; A 0.038 ± 0.045; M -0.896 ± 0.12; N -0.36 ± 0.078; D -0.528 ± 0.086; L -1.02 ± 0.1; W -0.932 ± 0.12; T -0.358 ± 0.052; F -0.708 ± 0.17; Y -0.723 ± 0.28; E 0.014 ± 0.033; Q -0.117 ± 0.049; H -0.116 ± 0.11; P -0.433 ± 0.075; I -0.68 ± 0.38; R -0.197 ± 0.046; V -0.846 ± 0.082
E49: R 0.028 ± 0.039; Q -0.045 ± 0.064; K -0.014 ± 0.05; G -0.123 ± 0.034; L -0.042 ± 0.036; A 0.007 ± 0.039; I -0.254 ± 0.41; S -0.056 ± 0.037; C -0.061 ± 0.052; H -0.047 ± 0.051; F -0.355 ± 0.23; V 0.009 ± 0.033; N 0.077 ± 0.12; P 0.026 ± 0.066; Y -0.181 ± 0.38; D 0.105 ± 0.063; T -0.036 ± 0.041
G43: D -0.085 ± 0.082; H 0.16 ± 0.11; E 0.07 ± 0.061; A -0.102 ± 0.053; T 0.003 ± 0.052; C -0.049 ± 0.21; V -0.018 ± 0.053; Q 0.061 ± 0.046; M 0.028 ± 0.066; R -0.016 ± 0.042; I -0.135 ± 0.1; W -0.135 ± 0.056; K 0.119 ± 0.047; N -0.003 ± 0.1; L 0.033 ± 0.046; Y -0.005 ± 0.069; S -0.013 ± 0.05; P -0.012 ± 0.085
Q50: M 0.058 ± 0.052; S 0.045 ± 0.034; D -0.106 ± 0.2; F -0.23 ± 0.087; T -0.034 ± 0.05; P -0.132 ± 0.054; G 0.111 ± 0.04; E 0.047 ± 0.035; N 0.009 ± 0.07; H 0.039 ± 0.065; K 0.06 ± 0.052; L -0.036 ± 0.037; C 0.096 ± 0.059; I -0.192 ± 0.15; R 0.051 ± 0.034; W -0.135 ± 0.03; Y -0.297 ± 0.086; A 0.08 ± 0.035; V 0.038 ± 0.035
D61: E -0.068 ± 0.068; N -0.046 ± 0.041; Y -0.157 ± 0.1; Q -0.126 ± 0.053; C -0.245 ± 0.11; G 0.035 ± 0.047; W -0.127 ± 0.056; A -0.136 ± 0.039; F -0.572 ± 0.25; K -0.103 ± 0.047; V -0.104 ± 0.045; R -0.066 ± 0.034; I 0.006 ± 0.046; P -0.092 ± 0.051; T -0.003 ± 0.035; M -0.002 ± 0.053; L -0.087 ± 0.041; H 0.039 ± 0.088
P48: L -1.1 ± 0.12; N -0.261 ± 0.1; W -1.07 ± 0.13; I -0.144 ± 0.18; A -0.091 ± 0.043; S -0.149 ± 0.037; D -0.054 ± 0.051; C -0.51 ± 0.071; H -0.389 ± 0.083; Y -1.13 ± 0.21; Q -0.208 ± 0.044; E -0.067 ± 0.042; R -0.42 ± 0.038; M -0.965 ± 0.091; F -1.3 ± 0.37; G -0.173 ± 0.036; K -0.212 ± 0.043; V -0.924 ± 0.089; T -0.247 ± 0.05
A44: N -0.061 ± 0.13; T -0.046 ± 0.063; Q 0.036 ± 0.052; W -0.083 ± 0.038; M 0.006 ± 0.05; F 0.011 ± 0.095; E 0.16 ± 0.055; L 0.06 ± 0.034; D 0.174 ± 0.085; R 0.135 ± 0.028; C 0.02 ± 0.058; I -0.218 ± 0.2; G 0.072 ± 0.031; H -0.021 ± 0.063; K 0.057 ± 0.043; P -0.041 ± 0.062; Y -0.007 ± 0.067; S 0.057 ± 0.042
L59: Q -0.554 ± 0.092; N -0.631 ± 0.13; E -0.95 ± 0.16; A -0.054 ± 0.054; C -0.106 ± 0.1; H -0.801 ± 0.18; F -0.065 ± 0.053; R -0.733 ± 0.063; W -0.213 ± 0.05; M -0.042 ± 0.078; Y -0.097 ± 0.12; S -0.265 ± 0.039; T -0.157 ± 0.05; V 0.046 ± 0.056; G -0.538 ± 0.075; K -0.561 ± 0.11
Y51: Q -0.124 ± 0.1; H -0.086 ± 0.097; R -0.137 ± 0.04; L -0.116 ± 0.058; K 0.034 ± 0.1; D -0.072 ± 0.18; M -0.189 ± 0.048; S -0.126 ± 0.055; A -0.005 ± 0.076; N -0.139 ± 0.11; P -0.049 ± 0.094; E -0.09 ± 0.049; C -0.083 ± 0.071; F -0.032 ± 0.14; V -0.06 ± 0.062

From the Human Domainome abundance scans (Beltran et al. 2025)
